Assay results reported in the nanobody polyreactivity screen of Harvey et al. (2022).

Assay: yeast display, Sf9 membrane polyspecificity reagent, FACS + sequencing; frameworks hold sequencing errors
Procedure, shortened: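 After 36–48 hours of galactose induction, yeast (Saccharomyces cerevisiae BJ5465) displaying a synthetic nanobody library were stained at 4 °C for 1 hour with 10% biotinylated, detergent-solubilized Sf9 membrane reagent. Streptavidin microbeads enriched the stained cells before FACS sorting into low and high (top ~1%) gates on anti-HA and streptavidin fluorescence. Each clone's polyreactivity label reflects its gate of origin.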

Sequence | polyreactivity (PSR sort gate)
QVQLVESGGGLVQAGGSLRLSCAASGFTFSNNVMGWYREAPGKERELVAAISRRGGSTYYADSVKGRFTISRDNAKNTVYLQMNSLKPEDTAVYYCAATYPYYVDTSPGKDDHWRQGTQVTVSS | high polyreactivity
QVQLVESGGGLVQAGGSLRLSCAASGSTFDRNVMGWYRQAPGKERELVAAISRVSSTNYADSVKGRFTFSRDNAKNTVYLLMNSLKPEDTAVYYCAADRAGSIMNYWGQGTQVTVSS | low polyreactivity
QVQLEESGGGLVQAGGSLRLSCAASGITFYYYAMGWYRRAPGKERELVAANSSGGSKSYADSVKGRFTISRDNAKNNVYLQMNSLKPDDSAVYYCAADLPYLWYPFYYWGQGTQVTVSS | high polyreactivity
QVQLVESGGGLDQAGGSLRLSCAPSGSIFKRNAMGWYRQAPGKARELVAAISKSSGSTYYADSVKGRFTISRDNAKNTVYLQMNSLKPEDYAVYYCAAKYYSYVDKYYYWGQGTQVTVSS | high polyreactivity
QVHLVESGGGLVQAGGSLRLSCAASGSIFKYYAMGWYRQAPGKETELVAAISSGGTTNYADSVKGRFTISRDNAKNTVYFQMNSLKPEDTEVYYCAAYSTYFRRRKWGYDYWGQGTQVTVSS | high polyreactivity
QVQLVESGGGLVQAGGSLRLSCAASGSIFVTYAMGWYRQAPGKERELVAVITWGGGSTYYADSVKGRFTISRDNAKNTVYLQMNSLKQEDTAVYYCAKDAFFTEIAIRDHIISHHYYWGQGTQVTVSS | low polyreactivity
QVQLGESGGGLVQAGGSLRLSCAASGRIFAGYAMGWYRQAPGKERELVATISSGGSTYYADSVKGRFTISRDNAKNTVYLQMHSLKPEDTAVYYCAAEYATRQYSSYYNLFNYCGQGTQVTVSS | low polyreactivity
QVQLVESGGGLVQAGGSLRLICAASGSTLNSYVMGWSRQAPGKERDMVATIRSGSSTNYADSVKGRFTISRDNAKNTVYFQMNSLIPEDTAVYSCAADAYSLCYDSWGQGTQVTVSS | low polyreactivity
QVQLVESGGGLVQAGGSLRLSCAASGITFYDNVMGWYRQAAGKERELVAAITSGGSTNYADSVKGRFTISRDNAKNTVYLQMNSLKPEDTAVYYCAAQPRVDYEFPYRYGYWGQGTQVTVSS | low polyreactivity
QVQLVESGGGLVQAGGSLRLSCAASGSIFDYYTMGWYRQAPGKERELVAAISWSGGSTYYADSVKGRFTISRDNAKNTVYLQMNSLKPEDTAVYYCNAVGYSRYTVWSYYYWGQGTQVTVSS | high polyreactivity
QVQLEESGGGLVQAGGSLRLSCAASGSIFFWYAMGWSRQAPGKERELVAAISSSGSTNYADSVKGRFTISRDNAKNTVYLQMNSLKPEDTAVYYCATRKYVYYPVQYEFWGQGTQVTVSS | high polyreactivity
QVQLEESGGGLVQAGGSLRLSGAASGRTSDGYAMGWYRQAPGKERELVAGITEGGGDTYYADSVKGRFTMSRDTAKNTVYLQMNSLKPEDPALYYCNAVEGSRLPYDYGGQGTQVTVSS | low polyreactivity
QVQLVESGGGLVQAGGSLRLSCAASGRIFGLYAMGWYTQAPGKERELVAAYADSVKGRFTISRDNAKNTVYLQMNSRKPVDTAVYYCAKGPLYAGSTIDLRDFNYWGQGTQVTVSS | low polyreactivity
QVQLVESGGGLVQAGGSLRLSCAASGRTFLSYMGWYRQAPGKERELVAISRYGTSTYYADSVKGRFTISRDNAKNTVYLQMNSLKPEDTAVFYCAAEVLRDGWWGYYYWGQGTQVTVSS | high polyreactivity
QVQLVESGGGLVQAGGSLRLSCAASGSIFPGNAMGWYRQAPGKERELVAAIRGGGSTNYADSVKGRFTISRDNAKNTVYLQMNSLKPEDTAVYYCNADPFTGYDYWGQGTQVTVSS | low polyreactivity
QVQLVESGGGLVQAGGSLRLSCAASGRIFVYNVMGWYRQAPGKERELVADISVGGGSTYYADSVKGRFTISRDNAKNTVYLQMNSLKPEDTAVYYCAASYYSGQSVRDDIMYYWGQGTQVTVSS | low polyreactivity
QVQLVESGGGLVQAGGSLRVSCAASGSTFGTYGMGWYRPAPGKERELVADITSGGSTYYADSVKGRFTISRDNAKNTVYLQMNSLTPEDTAVYYCAASWFVWSTAVPYDYWGQGTQVTVSS | low polyreactivity
QVQLVESGGGLVQAGGSLRLSCAASGRIFNDYAMGWSRQAPGKERELVAVIRRSGVSTYYADSVKGRFTISRDNAKNTVYLQMNSLKPEDTAVYYCAAYGYWGQGTQVTVSS | low polyreactivity
QVQLVDSGGGLVQAGGSLRLSCAASGFIFRRNAMGWYRQAPGKERELVAAITGGGGSTYYADSVKGRFTISRDNAKNTVYLQMNSLKPEDTAVYYCNALPARRRWQVDYWGQGTQVTVSS | high polyreactivity
QVQLVESGGGLVHAGGSLRLSCAASGSIIDRNAMGWYRQAPGKERELVASITRGGSTNYADSVKGRFTISRDNEKNTVYLQMNSLKPEDTAVYYCADDRVYLGMFRYEYWGQGTQVTVSS | high polyreactivity
QVQLVESGGGLVQAGGSLRLSCAASGSTFLYNAMGWYRQAPGKERELVATISSGGGSTNYADSVKGRFTISRDNAKNTVYLQMNSLKPEDTAVYYCAVEGYDSYKDDYWGQGTQVTVSS | low polyreactivity
QVQIVESGGGLVQAGGSLRLSCAASGNTFNYYTMGWYIQAPGKERELVAAIRSGGRTYYADSVKGRFTISRDNANNSVSLQMNSLKPEDTAVYFCAALAVTYRYDYWGQGTQLTVSS | high polyreactivity

Sequence | polyreactivity (PSR sort gate)
QVHLVESGGGLVQAGGSLRLSCAASGSNYSYYGMGWYRQAPGKERELVAAITDGDGTNYADSVKGRFTISRDNAKNTVYLQMNSLIPEDTAVYYCNRDFWYGVSPGREFYLYDYWGQGTLVTVSS | low polyreactivity
QVQLVESGGGLVQAGGSLRLSCAASGFTFPYYTMGWYRQAPGKERELVAAISKSGGSTYYADSVKGRFTISRDNAKNTVYLEMHSLKPEDTAVYYCNARRGSPAPYDYWGQGTQVTVSS | high polyreactivity
QVQLVESGGGLVQAGGSLRLSSAASGINLEYYAMGWSRQAPGKERELVAAIDSTDGSTYYADSVKGRFTISRDNAKNTVYLQLNSLKPEDTAVYYWNVVVSWPLSLLRRDYWGQGTQVTVSS | low polyreactivity
QVQLVESGGGLVQAGGSLRLSCAASGSTFTYYAMGWYRQAPGKERELVAAITWSGGSTYYADSVKGRFTISRDNAKNTVYLQMNSLKPEDTAVYYCNVYSIWGTYDYWGQGTQVTVSS | low polyreactivity
QVQLVESLGGLVQAGGSLRLSCAASGRTFPGYAMGWYRQAPGKERELVAAISYTGTRTYYADSVKGRFTISRDNAKNTVYLQMNSLKPEDTAVYFCAAGVQRVSGSYGYWGQGTQVTVSS | high polyreactivity
QVQLVESGGGLVQAAGSLRLSCAASGFIFIYNAMGWYRQAPGKERELVAAITGSDGGTFYADSVKGRFTFSRDYAKNTVYLQINSLKPEDTAVYYCHADNGSRQSRDGYESWGQGTQVTVSS | low polyreactivity
QVQLVESGGGLVQAGGSLRLSCAASGGIFPYYAMGWYRQAPGKERELVAGISQNDGRTYYADSVKGRFTISRDNAKNTVYLQMNSLIPDDTAVYYCATEYWYPRYGYWGQGTQVTVSS | low polyreactivity
QVQLEESGGGLVQAGGSLRLSCAASGRIFAYYAMGWYRQAPGKERELVAAIRGSGGSTYYADSVKGRFTISRDNAKNTVYLQMNSLKPEDTAVYYCAARTQPKKFYYWGQGTQVTVSS | high polyreactivity
QVQLVESGGGLVQAGGSLRLRCAASGSIFVSNTMGWYRQAPGKEREMVASIRETAGSTNYADSVKGRFTISRDYAKNTVYLQMNSLKPEDTEVYYCAARYSPTRYHYGYWGQGTQVTVSS | low polyreactivity
QVQLVESGGGLVQAGGSLRLSCAASGFTFGLYGMGWYRQAPGKERELVAAISSSGGDTYYADSVKGRFTISRDNAKNTVYLQMNSLKPEDTAVYYCAATADWATYDYWGQGTQVTVSS | low polyreactivity
QVQLVESGGGLVQAGGSLRLSSAASGSIFPSYAMGWYIQAPGKETELVAAITTSGGNTFYADSVKGRFTISRDNAKNTVYLQMNSLKPEDTAVYYCAADYSPYTVEYDYWGQGTQVTVSS | low polyreactivity
QVQLVESGGGLVQAGGSLRLSCAASGRTFRYNAMGWYRQAPGKERELVAAINWNGGSTYYADSVKGRFTISRDNAKNTVYLQMNSLKPEDTAVYYCNADFYHRYDWGQGTQVTVSS | high polyreactivity
QVQLVESGGGLVQAGGSLRLSCAASGIIFPQNAMGWSRQAPGKERELVAAISKSGGRTYYADSVKGRFTISRDNAKNTVYVQMNSLKPEDSAVYYCAKVPYAYSRDRSAEDSWGQGTQVTVSS | high polyreactivity
QVQLVESGGGLVQAGGSLRLSCAASGGTFQLNAMGWYRQAPGKERELVATITTGGSTYADSVKGRFTISRDNAKNTVYLQMNSLKPEDTAVYYCNKTCFLVKLDYWGQGTQVTVSS | low polyreactivity
QVQLVESGGGLVQAGGSLRLSCAASGLIFIKNAMGWYRQAPGKERELVAAITRGSSTTYADSVKGRFTISRDNAKNTVYLQMNSLKPEDPAVYYCAAQYGGGYLKPYRREYWGQGTQVTVSS | high polyreactivity
QVQLVESGGGLVQAGVSLRLSCAASGSIFGRYAMGWYRQAPGKERELVAAINDDSGRTYYADSVKGRFTISRDNAKNTVYLQKNSLKPEDTAVYYCATGRQSEYDYWGQGTQVTVSS | high polyreactivity
QVQHVESGRGLVQAGGSLRLSCAASGSIFTSNAMGWYRQAPGIERELVAAISIGGGTYYADSVKGRFTISRDNAKNTVYLQMNSLKPEDTAVYYCAARVGGRRVRFNYWGQGTQVTVSS | high polyreactivity
QVQLVESGGGFFQAGGSLRLSCAASGSTFVYNAMGWYRQAPGKERELVAAISRNGGRTYYADSVKGRFTISRDNAKNTVYFQMNSLKPEDTAVYYCAADYRVQLRKEYDYWGQGTQVTVSS | high polyreactivity
QVQLVESGGGLVQAGGSLRLSCAASGITFRRYAMGWYRPAPGKERELVASISRGGSTYYADSVKGRFTISRDNAKNTVYLQMNSLTPEDTAVYYCAADVAGRYDYWGQGTQVTVSS | high polyreactivity
QVQLVESGGGLVQAGGSLRLSCAASGSTFSPYDMGWYRQAPGKERELVAAITYRGGSTYYADSVKGRFTISRDNAKNTVYLQMNSLKPEDTAVYYCAAEIYQYSYGGTGWTLDWGQGTQVTVSS | low polyreactivity
QVQLVESGGGLVQAGGSLRLSCAASGITFDSYAMGWYRQAPGKERELVAAISYSGGSTYYADSVKGCFTISRDNAKNTVYLQMNSLKPEDTAVYYCAAASDDDYDYWGQGTQVTVSS | low polyreactivity
